Data set [1] is described as follows: folding stability dG unfold from trypsin proteolysis; higher = more stable. In short, it runs like this:
(§1)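 Only designs with AlphaFold2 dimer inter-PAE above 15 were retained; each was a mini-protein under 80 residues with no cysteine, in a PA-tagged cDNA display construct. After digestion with trypsin and chymotrypsin and sequencing, K50 was inferred by Bayesian fitting of counts, and unfolding free energy was derived per protease or combined against a sequence-predicted unfolded-state K50 and a shared folded-state K50.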

A short description of data set [2]: folding stability dG unfold from chymotrypsin proteolysis; higher = more stable. Summed up: as §1
Data set [3] can be described thus: folding stability dG unfold (combined trypsin and chymotrypsin); higher = more stable. In short, it runs like this:
as §1

± gives the half width of the 95% confidence interval.

Consider “SAGGEELARRLAEELRELGLEVEVVDVDLEEGKITIRVRPAPPPPPVTERRTRRRPDGREVTEERVLSAGGS [r8_318_TrROS_Hall]”, for which the results for the “folding stability dG unfold” value in data set [1], in data set [2] and in data set [3] were 0.282 ± 0.21 kcal/mol, 0.0369 ± 0.15 kcal/mol and 0.214 ± 0.16 kcal/mol, respectively.
The like results for “SAGGEELMKDHPNFIFITIEIRHPGGGKEKPKFMIMIPNNTPEELIDELRDFLPPGYKIKDVEIHYMDSAGG [r13_849_TrROS]” were, in that order, 2.41 ± 0.13 kcal/mol, 1.72 ± 0.096 kcal/mol and 2.14 ± 0.17 kcal/mol.
The like results for “SAGGEEVILTLPDGSPVRVIPDEGTASFELPGYRVETEVLPDGRIRLTVRDPAAGALVRELDLGLLRSAGGS [r16_760_JUSTAS]” were, in that order, 0.158 ± 0.039 kcal/mol, 0.789 ± 0.068 kcal/mol and 0.623 ± 0.039 kcal/mol.
The like results for “SAGGEEVKTIKVTLAFYNPETGELVAEVEATATLVDGKLVLTTTVTFRPAPAGEPVTVTVTVVEPEESAGGS [r16_327_TrROS_Hall]” were, in that order, 2.93 ± 0.39 kcal/mol, 3.63 ± 0.13 kcal/mol and 3.39 ± 0.24 kcal/mol.
As to “SAGGEEVTIKLSDELRDLVPDAEIRVERLEDGTLRIEIRVRLPAPEPPEPVERREERRVEVRVEVRLESAGG [r13_129_TrROS_Hall]”, the “folding stability dG unfold” value in data set [1] came to 1.98 ± 0.16 kcal/mol; in data set [2], 2.22 ± 0.22 kcal/mol; in data set [3], 2.14 ± 0.13 kcal/mol.
Consider “SAGGEGEILDKKEFTFPDNVKLEVYVFKVGDKYFVKVKTTITVPENPTKPKKPLKKITPEDIKKALEKSAGG [r13_760_TrMRF]”, for which the “folding stability dG unfold” value stood at 0.151 ± 0.33 kcal/mol in data set [1], 1.88 ± 0.21 kcal/mol in data set [2] and 1.5 ± 0.5 kcal/mol in data set [3].
In the same order, the values of “SAGGEGKEDKKIKVLFINVPVDKPDLLLKLAKEIIEKKEYDIIIVDHPENYKALKEAFPEYDIPIILGSAGG [r13_353_TrMRF]” are 2.04 ± 0.064 kcal/mol, 3.673 ± 0.022 kcal/mol and 3.29 ± 0.069 kcal/mol.
In the same order, the values of “SAGGEIERDPNGWIRMTYTLPGFGYKIEITFRVPDNGMMQIEDIDIEPIPPVPPPPPPKYDPNGEWKYSAGG [r13_646_TrROS]” are 1.64 ± 0.08 kcal/mol, 2.25 ± 0.041 kcal/mol and 2.02 ± 0.17 kcal/mol.
“SAGGEIKIKKSKDGKTLYIEIKIKAGEKVKLKLTITLPNGKKAEITSVEIIEKNGELYIKVEIKIKDSAGGS [r16_499_TrROS_Hall]”: the “folding stability dG unfold” value turned out to be 3.92 ± 0.28 kcal/mol in data set [1], 4.67 ± 0.4 kcal/mol in data set [2] and 4.42 ± 0.42 kcal/mol in data set [3].
In the same order, the values of “SAGGEKATVTVVYDPEKGYVVVPVDIPFLDENGKPKKLKLVFVLPASPEAEEAVKELAKELGLESVESAGGS [r8_381_TrMRF]” are 1.37 ± 0.1 kcal/mol, 2.38 ± 0.059 kcal/mol and 2.11 ± 0.2 kcal/mol.
In the same order, the values of “SAGGEKIKEALEKVPGLEIVKVEKKDGKVYIHIKAKSEEQRKKAAEALKKLPGIKEVKIEVIPEEELSAGGS [r16_671_TrROS_Hall]” are 3.28 ± 0.15 kcal/mol, 2.88 ± 0.064 kcal/mol and 3.03 ± 0.21 kcal/mol.
Consider “SAGGEKIKLKVVIKVPKELKNLSKEEIEELLKKKLGPNYKITKVEIKVEKNENGEEYLVVEVEIEKESAGGS [r16_408_TrROS_Hall]”, for which the results for the “folding stability dG unfold” value in data set [1], in data set [2] and in data set [3] were 3.64 ± 0.21 kcal/mol, 3.37 ± 0.13 kcal/mol and 3.58 ± 0.23 kcal/mol, respectively.
Consider “SAGGEKITAEELVEEIQKIFNENGMKPVAIEPMPDGGVFIHFKNPYMIMIDAEEGKIEIMPPEDMEDFSAGG [r13_717_TrROS]”, for which the “folding stability dG unfold” value amounted to 1.04 ± 0.068 kcal/mol in data set [1], 1.49 ± 0.13 kcal/mol in data set [2] and 1.09 ± 0.27 kcal/mol in data set [3].
In the same order, the values of “SAGGEKITIEVDGKKVTITKNEDGTITITIEHNGKVIKTITLPKNLEKITELTLTFNGKTYTITIEPSAGGS [r16_452_TrROS_Hall]” are 3.9 ± 0.13 kcal/mol, 5.013 ± 0.048 kcal/mol and 4.97 ± 0.11 kcal/mol.
The like results for “SAGGEKRYLVRVRAYYRFEEGERELDLEVEVTSPEEAKELLEKIATRLRKLYPDRIRIEVEIRPLEESAGGS [r16_475_TrMRF]” were, in that order, 4.53 ± 0.17 kcal/mol, 5.1 ± 0.12 kcal/mol and 4.94 ± 0.14 kcal/mol.
“SAGGEKTLTVEYNPEDDYLTFTLTLTRPGYDPVTGKPREYKVTLTFTVPLNEATPEHVKLALEIYEKDSAGG [r13_980_TrMRF]”: the “folding stability dG unfold” value was 2.88 ± 0.13 kcal/mol in data set [1], 4.71 ± 0.15 kcal/mol in data set [2] and 4.28 ± 0.56 kcal/mol in data set [3].
In the same order, the values of “SAGGEKTTLTLTLTLTLPPVTTVTYDPETGELRVETRTTTLTLTITVTADSPEEAERALRELLKKLGLSAGG [r13_35_TrROS_Hall]” are 4.4 ± 0.17 kcal/mol, 6.41 ± 0.27 kcal/mol and over 6 kcal/mol.
On to “SAGGEKTYMVRIDIEYRTPGKPREIDLMVPIKSPEQAREQLDKIADFLAKEHPDNWRIKVEIYPMEDSAGGS [r16_475_TrROS]”, for which the “folding stability dG unfold” value in data set [1] came out at 1.28 ± 0.18 kcal/mol; in data set [2] it was 2.49 ± 0.068 kcal/mol; in data set [3], 2.16 ± 0.29 kcal/mol.
The like results for “SAGGELIEKAIEEALENGEEVEIEVVLRDENGELYRIRIRVRRERLPDGEVKTEIEIEIERFPLPEESAGGS [r16_323_TrROS_Hall]” were, in that order, 4.28 ± 0.2 kcal/mol, 4.66 ± 0.11 kcal/mol and 4.6 ± 0.12 kcal/mol.
Turning to “SAGGELVLLSESESVFTSPDGSRTVVRTLLTERPGDLLVEITTTTTIEPESGAVTTTTTTRVLPRRESAGGS [r8_264_JUSTAS]”, the entries for the “folding stability dG unfold” value in data set [1], in data set [2] and in data set [3] were 2.33 ± 0.043 kcal/mol, 3.021 ± 0.013 kcal/mol and 2.8 ± 0.038 kcal/mol, respectively.
In the case of “SAGGEMTAEERARRLAERLAEELERRTGRKVEVVSVEVEYDPETDEVTVRIEIRLEDGSTLTIELRLSAGGS [r8_372_TrROS_Hall]”, the “folding stability dG unfold” value in data set [1] came out at 4.86 ± 0.26 kcal/mol; in data set [2], 3.41 ± 0.11 kcal/mol; in data set [3], 4.33 ± 0.27 kcal/mol.
In the same order, the values of “SAGGESTPEIEPVATLELPTPDGRPITVEVYRLKDGTVRVVVRNPNPPETITLTIPAKEGETIPIFLSAGGS [r16_566_TrMRF]” are 1.9 ± 0.04 kcal/mol, 2.2 ± 0.045 kcal/mol and 2.11 ± 0.067 kcal/mol.
The like results for “SAGGETKTITIKVDGKLVTITVKKNKNGEELVTVKVYENGKLVEEVTMSKDELEELAKKLGLSVEELKSAGG [r13_108_TrROS_Hall]” were, in that order, 3.27 ± 0.091 kcal/mol, 3.81 ± 0.051 kcal/mol and 3.62 ± 0.1 kcal/mol.
The like results for “SAGGETVEIEVEMSPEEVREAIKKAAEALDAEVVEVKYDKETKKVTITVKKGATEEELRKALEEALKSAGGS [r8_338_TrROS_Hall]” were, in that order, 2.47 ± 0.12 kcal/mol, 1.78 ± 0.095 kcal/mol and 2.19 ± 0.095 kcal/mol.
With “SAGGETVTITIKVKGKEITVTFNKDTGKVTITDKDTGKTVTITLPAGEEPTLEELLEALKKLGFEIEPSAGG [r13_687_TrROS_Hall]”, the “folding stability dG unfold” value in data set [1] worked out at 4.11 ± 0.18 kcal/mol; in data set [2], 4.18 ± 0.095 kcal/mol; in data set [3], 4.32 ± 0.099 kcal/mol.
On to “SAGGEVIELKIKFKTPEQREKLKEIAKKLNAEVVEEKDGEVIIRFKTPEQAERALKEAEKLGAEVELSAGGS [r16_88_TrROS_Hall]”, for which the “folding stability dG unfold” value in data set [1] worked out at 4.29 ± 0.26 kcal/mol; in data set [2], 4.47 ± 0.097 kcal/mol; in data set [3], 4.48 ± 0.17 kcal/mol.
In the same order, the values of “SAGGEVKIEVVEKDGELYIVVTVRAPSVEELKKALEELGLEVEVVKIEEVKGEDGETYVVVVVKIKPSAGGS [r16_699_TrROS_Hall]” are 2.41 ± 0.086 kcal/mol, 3.68 ± 0.065 kcal/mol and 3.24 ± 0.07 kcal/mol.
In the case of “SAGGEVKPGEEVEVEVLVLVRGEDGELYLVRVKMRFRVKEDGTVEMEVEVEVVRVPLSEEELKALLEASAGG [r13_544_TrROS_Hall]”, the figures for the “folding stability dG unfold” value in data set [1], in data set [2] and in data set [3] were 4.43 ± 0.14 kcal/mol, 5.99 ± 0.26 kcal/mol and over 6 kcal/mol, respectively.
The like results for “SAGGEVKTLEVTLEVNGKKVRVRVELTKDGTLKVTVTFEDGTKVELEIKLPKVKVKEVKFYSLEELKSAGGS [r16_48_TrROS_Hall]” were, in that order, 2.22 ± 0.071 kcal/mol, 1.78 ± 0.05 kcal/mol and 2.06 ± 0.1 kcal/mol.
The like results for “SAGGEVKVEIEVELNEDGTLRVRARVEVRVDGELVTVEVEIEVRLEPAPPPAPPPVLVVDPETGEILSAGGS [r8_269_TrROS_Hall]” were, in that order, 3.29 ± 0.2 kcal/mol, 1.94 ± 0.11 kcal/mol and 2.7 ± 0.21 kcal/mol.
On to “SAGGEVKVEIKYDKKKNKIEIKVIVRDKETGEWKELSAEEIAKLLKKKLKLPNVKEIKVEVYEPGEKPSAGG [r13_327_TrROS_Hall]”, for which the results for the “folding stability dG unfold” value in data set [1], in data set [2] and in data set [3] were 1.31 ± 0.11 kcal/mol, 1.98 ± 0.12 kcal/mol and 1.97 ± 0.18 kcal/mol, respectively.
Consider “SAGGEVLVIELSLEELKNLKPNQTVKIKLPDGSELEVRVEEVDGRLYLFVRNKENPEEVELIEEITIESAGG [r13_745_TrROS_Hall]”, for which the “folding stability dG unfold” value in data set [1] was 2.79 ± 0.062 kcal/mol; in data set [2], 3.48 ± 0.049 kcal/mol; in data set [3] it was 3.3 ± 0.065 kcal/mol.
The like results for “SAGGEYTVVSVLEERKDPATGKTVTLELLKDPNSNVLYRRVTTTDPANPDVVTTTLYDAAGNKVSTVSSAGG [r13_658_JUSTAS]” were, in that order, 2.17 ± 0.046 kcal/mol, 2.62 ± 0.055 kcal/mol and 2.48 ± 0.095 kcal/mol.
The like results for “SAGGFIVVPIKAKSLEEALEKAREIAAALGIPGTLEDPRVDLDDFLKNYKPDTEVRVYVRHPDGVIDELSAG [r5_503_TrMRF]” were, in that order, 1.23 ± 0.033 kcal/mol, 0.223 ± 0.21 kcal/mol and 0.878 ± 0.11 kcal/mol.
The like results for “SAGGFKIKNIDVERNPDNGWRTITVEFPGNGWKFQIQVPPDGGVKYEWYNNGEPQTYTIPADDLKDLSAGGS [r8_238_TrROS]” were, in that order, 1 ± 0.06 kcal/mol, 1.34 ± 0.082 kcal/mol and 1.2 ± 0.08 kcal/mol.

These data come from the supplement of paper PMC12764529.
